{
  "source": "patent US20170209564A1",
  "binders": {"B1": {"name": "CR6261 (antibody, V domains shown)", "VH": "EVQLVESGAEVKKPGSSVKVSCKASGGPFRSYAISWVRQAPGQGPEWMGGIIPIFGTTKYAPKFQGRVTITADDFAGTVYMELSSLRSEDTAMYYCAKHMGYQVRETMDVWGKGTTVTVSS", "VL": "QSVLTQPPSVSAAPGQKVTISCSGSSSNIGNDYVSWYQQLPGTAPKLLIYDNNKRPSGIPDRFSGSKSGTSATLGITGLQTGDEANYYCATWDRRPTAYVVFGGGTKLTVLG"}},
  "assay_in_all_cases": "ELISA signal over HTRF expression signal, P. pastoris",
  "settings_in_all_cases": "remark: other sources report otherwise",
  "key": {"11H6": {"biological_target": "11H6"}, "26H1": {"biological_target": "26H1"}, "29C2": {"biological_target": "29C2"}, "2C4": {"biological_target": "2C4"}, "2D9": {"biological_target": "2D9"}, "35H3": {"biological_target": "35H3"}, "36E4": {"biological_target": "36E4"}, "58A11": {"biological_target": "58A11"}, "63C3": {"biological_target": "63C3"}, "67C11": {"biological_target": "67C11"}, "6A1": {"biological_target": "6A1"}, "6E12": {"biological_target": "6E12"}, "71C4": {"biological_target": "71C4"}, "71H2": {"biological_target": "71H2"}, "75E9": {"biological_target": "75E9"}, "75G5": {"biological_target": "75G5"}, "75H8": {"biological_target": "75H8"}, "76A10": {"biological_target": "76A10"}, "78G2": {"biological_target": "78G2"}, "79C2": {"biological_target": "79C2"}, "7B6": {"biological_target": "7B6"}, "7D9": {"biological_target": "7D9"}, "81F11": {"biological_target": "81F11"}, "84B8": {"biological_target": "84B8"}, "85A7": {"biological_target": "85A7"}, "86B3": {"biological_target": "86B3"}, "86B4": {"biological_target": "86B4"}, "86H9": {"biological_target": "86H9"}, "89F11": {"biological_target": "89F11"}, "8A10": {"biological_target": "8A10"}, "90A9": {"biological_target": "90A9"}, "91C4": {"biological_target": "91C4"}, "91F10": {"biological_target": "91F10"}, "96A7": {"biological_target": "96A7"}, "96G5": {"biological_target": "96G5"}, "96H8": {"biological_target": "96H8"}, "9C10": {"biological_target": "9C10"}, "9C6": {"biological_target": "9C6"}},
  "data": [
    {"binder": "B1", "values": [
      {"measurement": "fold increase of ratio over parental SEQ ID NO: 6", "setting": "11H6", "result": 7.87},
      {"measurement": "ratio (binding signal/HTRF signal)", "setting": "11H6", "result": 46.7},
      {"measurement": "fold increase of ratio over parental SEQ ID NO: 6", "setting": "26H1", "result": 1.62},
      {"measurement": "ratio (binding signal/HTRF signal)", "setting": "26H1", "result": 9.64},
      {"measurement": "fold increase of ratio over parental SEQ ID NO: 6", "setting": "29C2", "result": 2.32},
      {"measurement": "ratio (binding signal/HTRF signal)", "setting": "29C2", "result": 13.8},
      {"measurement": "fold increase of ratio over parental SEQ ID NO: 6", "setting": "2C4", "result": 4.29},
      {"measurement": "ratio (binding signal/HTRF signal)", "setting": "2C4", "result": 25.5},
      {"measurement": "fold increase of ratio over parental SEQ ID NO: 6", "setting": "2D9", "result": 2.76},
      {"measurement": "ratio (binding signal/HTRF signal)", "setting": "2D9", "result": 16.4},
      {"measurement": "fold increase of ratio over parental SEQ ID NO: 6", "setting": "35H3", "result": 2.94},
      {"measurement": "ratio (binding signal/HTRF signal)", "setting": "35H3", "result": 17.4},
      {"measurement": "fold increase of ratio over parental SEQ ID NO: 6", "setting": "36E4", "result": 2.07},
      {"measurement": "ratio (binding signal/HTRF signal)", "setting": "36E4", "result": 12.3},
      {"measurement": "fold increase of ratio over parental SEQ ID NO: 6", "setting": "58A11", "result": 1.67},
      {"measurement": "ratio (binding signal/HTRF signal)", "setting": "58A11", "result": 9.93},
      {"measurement": "fold increase of ratio over parental SEQ ID NO: 6", "setting": "63C3", "result": 4.15},
      {"measurement": "ratio (binding signal/HTRF signal)", "setting": "63C3", "result": 24.7},
      {"measurement": "fold increase of ratio over parental SEQ ID NO: 6", "setting": "67C11", "result": 3.57},
      {"measurement": "ratio (binding signal/HTRF signal)", "setting": "67C11", "result": 21.2},
      {"measurement": "fold increase of ratio over parental SEQ ID NO: 6", "setting": "6A1", "result": 4.63},
      {"measurement": "ratio (binding signal/HTRF signal)", "setting": "6A1", "result": 27.5},
      {"measurement": "fold increase of ratio over parental SEQ ID NO: 6", "setting": "6E12", "result": 2.85},
      {"measurement": "ratio (binding signal/HTRF signal)", "setting": "6E12", "result": 16.9},
      {"measurement": "fold increase of ratio over parental SEQ ID NO: 6", "setting": "71C4", "result": 5.13},
      {"measurement": "ratio (binding signal/HTRF signal)", "setting": "71C4", "result": 30.4},
      {"measurement": "fold increase of ratio over parental SEQ ID NO: 6", "setting": "71H2", "result": 11.2},
      {"measurement": "ratio (binding signal/HTRF signal)", "setting": "71H2", "result": 66.3},
      {"measurement": "fold increase of ratio over parental SEQ ID NO: 6", "setting": "75E9", "result": 2.17},
      {"measurement": "ratio (binding signal/HTRF signal)", "setting": "75E9", "result": 12.9},
      {"measurement": "fold increase of ratio over parental SEQ ID NO: 6", "setting": "75G5", "result": 6.38},
      {"measurement": "ratio (binding signal/HTRF signal)", "setting": "75G5", "result": 37.9},
      {"measurement": "fold increase of ratio over parental SEQ ID NO: 6", "setting": "75H8", "result": 1.73},
      {"measurement": "ratio (binding signal/HTRF signal)", "setting": "75H8", "result": 10.2},
      {"measurement": "fold increase of ratio over parental SEQ ID NO: 6", "setting": "76A10", "result": 3.37},
      {"measurement": "ratio (binding signal/HTRF signal)", "setting": "76A10", "result": 20},
      {"measurement": "fold increase of ratio over parental SEQ ID NO: 6", "setting": "78G2", "result": 1.58},
      {"measurement": "ratio (binding signal/HTRF signal)", "setting": "78G2", "result": 9.36},
      {"measurement": "fold increase of ratio over parental SEQ ID NO: 6", "setting": "79C2", "result": 8.62},
      {"measurement": "ratio (binding signal/HTRF signal)", "setting": "79C2", "result": 51.2},
      {"measurement": "fold increase of ratio over parental SEQ ID NO: 6", "setting": "7B6", "result": 1.66},
      {"measurement": "ratio (binding signal/HTRF signal)", "setting": "7B6", "result": 9.84},
      {"measurement": "fold increase of ratio over parental SEQ ID NO: 6", "setting": "7D9", "result": 2.07},
      {"measurement": "ratio (binding signal/HTRF signal)", "setting": "7D9", "result": 12.3},
      {"measurement": "fold increase of ratio over parental SEQ ID NO: 6", "setting": "81F11", "result": 5.37},
      {"measurement": "ratio (binding signal/HTRF signal)", "setting": "81F11", "result": 31.9},
      {"measurement": "fold increase of ratio over parental SEQ ID NO: 6", "setting": "84B8", "result": 9.71},
      {"measurement": "ratio (binding signal/HTRF signal)", "setting": "84B8", "result": 57.7},
      {"measurement": "fold increase of ratio over parental SEQ ID NO: 6", "setting": "85A7", "result": 4.72},
      {"measurement": "ratio (binding signal/HTRF signal)", "setting": "85A7", "result": 28},
      {"measurement": "fold increase of ratio over parental SEQ ID NO: 6", "setting": "86B3", "result": 10.5},
      {"measurement": "ratio (binding signal/HTRF signal)", "setting": "86B3", "result": 62.4},
      {"measurement": "fold increase of ratio over parental SEQ ID NO: 6", "setting": "86B4", "result": 13.1},
      {"measurement": "ratio (binding signal/HTRF signal)", "setting": "86B4", "result": 77.7},
      {"measurement": "fold increase of ratio over parental SEQ ID NO: 6", "setting": "86H9", "result": 5.77},
      {"measurement": "ratio (binding signal/HTRF signal)", "setting": "86H9", "result": 34.3},
      {"measurement": "fold increase of ratio over parental SEQ ID NO: 6", "setting": "89F11", "result": 2.42},
      {"measurement": "ratio (binding signal/HTRF signal)", "setting": "89F11", "result": 14.4},
      {"measurement": "fold increase of ratio over parental SEQ ID NO: 6", "setting": "8A10", "result": 6.29},
      {"measurement": "ratio (binding signal/HTRF signal)", "setting": "8A10", "result": 37.4},
      {"measurement": "fold increase of ratio over parental SEQ ID NO: 6", "setting": "90A9", "result": 7.72},
      {"measurement": "ratio (binding signal/HTRF signal)", "setting": "90A9", "result": 45.8},
      {"measurement": "fold increase of ratio over parental SEQ ID NO: 6", "setting": "91C4", "result": 4.35},
      {"measurement": "ratio (binding signal/HTRF signal)", "setting": "91C4", "result": 25.8},
      {"measurement": "fold increase of ratio over parental SEQ ID NO: 6", "setting": "91F10", "result": 1.78},
      {"measurement": "ratio (binding signal/HTRF signal)", "setting": "91F10", "result": 10.6},
      {"measurement": "fold increase of ratio over parental SEQ ID NO: 6", "setting": "96A7", "result": 1.85},
      {"measurement": "ratio (binding signal/HTRF signal)", "setting": "96A7", "result": 11},
      {"measurement": "fold increase of ratio over parental SEQ ID NO: 6", "setting": "96G5", "result": 2.4},
      {"measurement": "ratio (binding signal/HTRF signal)", "setting": "96G5", "result": 14.3},
      {"measurement": "fold increase of ratio over parental SEQ ID NO: 6", "setting": "96H8", "result": 4.8},
      {"measurement": "ratio (binding signal/HTRF signal)", "setting": "96H8", "result": 28.5},
      {"measurement": "fold increase of ratio over parental SEQ ID NO: 6", "setting": "9C10", "result": 2.91},
      {"measurement": "ratio (binding signal/HTRF signal)", "setting": "9C10", "result": 17.3},
      {"measurement": "fold increase of ratio over parental SEQ ID NO: 6", "setting": "9C6", "result": 5.54},
      {"measurement": "ratio (binding signal/HTRF signal)", "setting": "9C6", "result": 32.9}
    ]}
  ]
}
